In publication PMC10910542 (Acta Crystallographica. Section D, Structural Biology, 2024):

T1: MKvar (Ramazzottius varieornatus, UniProt A0A1D1VW28)
T1 construct: gene RvY_15762-1
T1 sequence (A0A1D1VW28 1-405): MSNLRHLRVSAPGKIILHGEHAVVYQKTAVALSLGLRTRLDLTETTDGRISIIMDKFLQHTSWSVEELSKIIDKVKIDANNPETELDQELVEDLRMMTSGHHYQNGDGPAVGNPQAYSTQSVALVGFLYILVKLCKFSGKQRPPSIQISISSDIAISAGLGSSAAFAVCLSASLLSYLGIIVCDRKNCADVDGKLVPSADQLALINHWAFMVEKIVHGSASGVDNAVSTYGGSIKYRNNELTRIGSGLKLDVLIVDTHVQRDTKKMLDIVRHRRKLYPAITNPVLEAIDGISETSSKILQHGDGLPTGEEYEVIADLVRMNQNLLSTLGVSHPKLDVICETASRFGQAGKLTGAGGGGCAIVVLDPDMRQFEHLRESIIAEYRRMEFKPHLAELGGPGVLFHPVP

T2: MKmaz (Methanosarcina mazei, UniProt Q8PW39)
T2 construct: gene mvk
T2 sequence (Q8PW39 1-301): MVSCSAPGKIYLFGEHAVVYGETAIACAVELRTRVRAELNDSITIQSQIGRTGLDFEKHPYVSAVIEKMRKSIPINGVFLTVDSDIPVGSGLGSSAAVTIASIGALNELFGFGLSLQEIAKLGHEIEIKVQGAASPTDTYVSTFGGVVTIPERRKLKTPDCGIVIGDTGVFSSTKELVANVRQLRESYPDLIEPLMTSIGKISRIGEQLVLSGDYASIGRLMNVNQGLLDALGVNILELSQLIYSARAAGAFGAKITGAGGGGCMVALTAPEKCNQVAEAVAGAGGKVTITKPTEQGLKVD

B1: MKmaz (Methanosarcina mazei Go1) (protein)
chain: T2 sequence (Q8PW39 1-301)
B2: MKvar (Ramazzottius varieornatus) (protein)
chain: T1 sequence (A0A1D1VW28 1-405)
B3: MKbur (Methanococcoides burtonii DSM 6242) (protein)
chain: MITCSAPGKVYLFGEHAVVYGEPAICCAVDIRTRVTVSPADTITISSSLGTTGIDFEVHPYVSAVLERFQDISSFDGVDLRISSDIPVGSGLGSSAAVTVATIKAMDTLLDLGLELDDIAKMGHEVEQNIQGTASPTDTYVCTMGGVVLIPQRKKLELIDCGILIGNTNIFSSTKELVGNVADLNERFPDVVGPVLSSIGKLSVIGEGLVNDRDYVSVGELMNIDQGLLDAIGVSCAELSSLIYAARESGAYGSKITGAGGGGCMVAISPRENVDSVAEAIGMAGGKVVVANATDIGVRVECQ

Experiments:
[1] = target: T1, MKvar; assay: residual activity, coupled assay; assay type: biochemical
[2] = target: T3, MKbur (Methanococcoides burtonii, UniProt Q12TI0); assay: residual activity, coupled assay; assay type: biochemical; settings: 1.5 mM mevalonate, 3 mM ATP
T3 construct: gene mvk

[3] = target: T2, MKmaz; assay: residual activity, coupled assay; assay type: biochemical
[4] = substrate: CC(O)(CCO)CC(=O)O; assay: purified protein; settings: 5 mM ATP, Mg2+ 10 mM, 25 °C, racemic mevalonate
[5] = substrate: Nc1ncnc2c1ncn2[C@@H]1O[C@H](COP(=O)(O)OP(=O)(O)OP(=O)(O)O)[C@@H](O)[C@H]1O; assay: purified protein; settings: 5 mM (RS)-mevalonate, Mg2+ 10 mM, 25 °C

| Molecule | remaining activity at 100 µM [1] | % residual activity at 100 μM [2] | remaining activity at 100 µM [3] | Km [4] | kcat [4] | kcat/Km [4] | Km [5] |
| --- | --- | --- | --- | --- | --- | --- | --- |
| CC(C)=CCC/C(C)=C/COP(=O)(O)OP(=O)(O)O [geranyl pyrophosphate] | < 20% | MKbur, like MKmaz, appears to be less sensitive to inhibition | 92% | – | – | – | – |
| CC(C)=CCC/C(C)=C/CC/C(C)=C/COP(=O)(O)OP(=O)(O)O [farnesyl pyrophosphate] | 0.4% | MKbur, like MKmaz, appears to be less sensitive to inhibition | 70% | – | – | – | – |
| B1 | – | – | – | 123 ± 9 µM | 10 s⁻¹ | 81000 M⁻¹ s⁻¹ | 511 ± 48 µM |
| B2 | – | – | – | 237 ± 68 µM | 5 ± 0.8 s⁻¹ | 21000 M⁻¹ s⁻¹ | 4844 ± 1413 µM |
| B3 | – | – | – | 55 ± 11 µM | 5 s⁻¹ | 90000 M⁻¹ s⁻¹ | 331 ± 63 µM |
